Measured values taken from patent publication US20220054648A1.

Assays:
human Trop-2 (human) [1] = biological target: human Trop-2 (human) (UniProt P09758); experiment: cell binding assay on NCI-N87 cells, anti-mouse-HRP secondary, luminescence
human Trop-2 (human) [2] = biological target: human Trop-2 (human) (UniProt P09758); experiment: cell binding assay (cell line not given)

human Trop-2 (human), sequence (P09758 27-323): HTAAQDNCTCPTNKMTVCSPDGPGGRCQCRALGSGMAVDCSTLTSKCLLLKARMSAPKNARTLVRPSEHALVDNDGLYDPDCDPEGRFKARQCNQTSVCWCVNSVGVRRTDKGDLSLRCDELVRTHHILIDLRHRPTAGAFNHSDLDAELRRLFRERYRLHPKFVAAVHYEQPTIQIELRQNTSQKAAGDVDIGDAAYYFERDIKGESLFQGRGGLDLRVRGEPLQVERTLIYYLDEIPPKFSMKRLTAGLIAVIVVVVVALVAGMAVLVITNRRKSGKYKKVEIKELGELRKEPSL

Substance | BMax (relative luminescent units) (human Trop-2 (human) [1]) | Kd (human Trop-2 (human) [2]) [nM]
162-46.2 murine monoclonal antibody against human Trop-2 | 8470 | –
MAB650 murine monoclonal antibody against human Trop-2 (R&D Systems) | 6020 | –
hRS7-CL2-SN-38 (anti-Trop-2 ADC, hRS7 IgG conjugated to CL2-SN-38) (antibody) | – | 1.2
hRS7-CL2A-SN-38 (anti-Trop-2 ADC, hRS7 IgG conjugated to CL2A-SN-38) (antibody) | – | 1.2
